Results from publication PMC12700104.

Molecular target: YxiD^CTD (C-terminal domain of YxiD, Pro428-Pro534), Bacillus subtilis 6633 (Bacillus subtilis 6633 (Bacillus subtilis subsp. spizizenii ATCC 6633))
Assay: ITC; 15 uM YxiD^CTD in the cell titrated with 150 uM YxxD in the syringe; 25°C; 20 mM HEPES pH 7.5, 150 mM NaCl; OneSite binding model

B1: YxxD immunity protein, Bacillus subtilis 6633 (natural protein)
chain: MSYNFIKSNKENDFYPVNQSEIEEVEKNLNLKLPSELVNFYLEVGYGFIKGSEFNTNRILDPYSVRDFRLRINDFEFYPDIEIYDEFENDKLIFFEGSESALMSIELNDNNKNPIYYYDIQIATSLTEFLRKIEENDQYYLDLLDDE
Question: B1 was tested. Which Kd did it give?
Answer: 9.4 nM

Question: What about the dH of the same binder?
Answer: -10.2 kcal/mol

Question: What about the stoichiometry N of the same binder?
Answer: 0.975 sites
